# T1: ephrinB2-Fc (human ephrinB2 residues 1-229, Factor XA cleavage site, human IgG1 residues 100-330) (human, UniProt P52799 28-229)
# T1 chain: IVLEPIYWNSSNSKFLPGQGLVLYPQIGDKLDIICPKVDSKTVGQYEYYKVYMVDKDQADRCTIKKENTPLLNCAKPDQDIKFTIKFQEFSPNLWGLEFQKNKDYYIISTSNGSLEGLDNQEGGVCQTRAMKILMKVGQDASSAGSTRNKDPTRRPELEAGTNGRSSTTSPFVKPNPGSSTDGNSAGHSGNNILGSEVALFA
# B1: Wildtype NiV G ectodomain (Nipah virus attachment glycoprotein G, residues 71-602, N-terminal His6-tag) (domain or fragment)
# chain: QNYTRSTDNQAVIKDALQGIQQQIKGLADKIGTEIGPKVSLIDTSSTITIPANIGLLGSKISQSTASINENVNEKCKFTLPPLKIHECNISCPNPLPFREYRPQTEGVSNLVGLPNNICLQKTSNQILKPKLISYTLPVVGQSGTCITDPLLAMDEGYFAYSHLERIGSCSRGVSKQRIIGVGEVLDRGDEVPSLFMTNVWTPPNPNTVYHCSAVYNNEFYYVLCAVSTVGDPILNSTYWSGSLMMTRLAVKPKSNGGGYNQHQLALRSIEKGRYDKVMPYGPSGIKQGDTLYFPAVGFLVRTEFKYNDSNCPITKCQYSKPENCRLSMGIRPNSHYILRSGLLKYNLSDGENPKVVFIEISDQRLSIGSPSKIYDSLGQPVFYQASFSWDTMIKFGDVLTVNPLVVNWRNNTVISRPGQSQCPRFNTCPEICWEGVYNDAFLIDRINWISAGVFLDSNQTAENPVFTVFKDNEILYRAQLASEDTNAQKTITNCFLLKNKIWCISLVEIYDTGDNVIRPKLFAVKIPEQCT
# Target: T1, ephrinB2-Fc (human ephrinB2 residues …)
# Test: ELISA
binder,measurement,value
B1,Ki,0.038 nM

# Source: PMC5626764 (2017)
